Data taken from patent publication US20120316071A1 (published 2012).

T1: rHuman Erythropoietin R/Fc Chimera, CF (R&D Systems Cat#963-ER) (human, UniProt P19235 25-250)
T1 construct: Bought recombinant protein; also called EPO R; EPO R/Fc; Fc part of the bought chimera not given
T1 sequence (looked up): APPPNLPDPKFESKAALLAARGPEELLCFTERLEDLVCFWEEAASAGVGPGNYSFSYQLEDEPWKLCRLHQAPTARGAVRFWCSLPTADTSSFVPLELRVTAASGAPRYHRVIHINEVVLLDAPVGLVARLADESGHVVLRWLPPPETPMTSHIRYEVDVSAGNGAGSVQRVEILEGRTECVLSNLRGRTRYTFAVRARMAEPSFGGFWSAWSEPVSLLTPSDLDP

B1: Fab VH5-51_IGHD5-18*01>3_IGHJ4*01 G100K/G104T/G24A/S28R/G35V (KT ARV) & V3-4_IGLJ1*01 (Fab, V domains shown)
VH: EVQLVQSGAEVKKPGESLKISCKASGYRFTSYWIVWVRQMPGKGLEWMGIIYPGDSDTRYSPSFQGQVTISADKSISTAYLQWSSLKASDTAMYYCARRKYSYTYDYFDYWGQGTLVTVSS
VL: QTVVTQEPSFSVSPGGTVTLTCGLSSGSVSTSYYPSWYQQTPGQAPRTLIYSTNTRSSGVPDRFSGSILGNKAALTITGAQADDESDYYCVLYMGSGISYVFGTGTKVTVL
notes: Tested as Fab; CH1 with His6/Flag tags (plasmid A) and lambda CL (plasmid E) come from the expression vectors
B2: Fab VH5-51_IGHD5-18*01>3_IGHJ4*01 G100K/G104T/G24L/S28R/G35V (KT LRV) & V3-4_IGLJ1*01 (Fab, V domains shown)
VH: EVQLVQSGAEVKKPGESLKISCKLSGYRFTSYWIVWVRQMPGKGLEWMGIIYPGDSDTRYSPSFQGQVTISADKSISTAYLQWSSLKASDTAMYYCARRKYSYTYDYFDYWGQGTLVTVSS
VL: QTVVTQEPSFSVSPGGTVTLTCGLSSGSVSTSYYPSWYQQTPGQAPRTLIYSTNTRSSGVPDRFSGSILGNKAALTITGAQADDESDYYCVLYMGSGISYVFGTGTKVTVL
notes: as for B1
B3: Fab VH5-51_IGHD5-18*01>3_IGHJ4*01 G100K/G104T/G24T/S28R/G35V (KT TRV) & V3-4_IGLJ1*01 (Fab, V domains shown)
VH: EVQLVQSGAEVKKPGESLKISCKTSGYRFTSYWIVWVRQMPGKGLEWMGIIYPGDSDTRYSPSFQGQVTISADKSISTAYLQWSSLKASDTAMYYCARRKYSYTYDYFDYWGQGTLVTVSS
VL: QTVVTQEPSFSVSPGGTVTLTCGLSSGSVSTSYYPSWYQQTPGQAPRTLIYSTNTRSSGVPDRFSGSILGNKAALTITGAQADDESDYYCVLYMGSGISYVFGTGTKVTVL
notes: Tested as Fab; CH1 with His6/Flag tags (plasmid A) and lambda CL (plasmid E) come from the expression vectors; also called H:KT TRV & L:wt
B4: Fab VH5-51_IGHD5-18*01>3_IGHJ4*01 G100K/G104T/S28R (KT S28R) & V3-4_IGLJ1*01 (Fab, V domains shown)
VH: EVQLVQSGAEVKKPGESLKISCKGSGYRFTSYWIGWVRQMPGKGLEWMGIIYPGDSDTRYSPSFQGQVTISADKSISTAYLQWSSLKASDTAMYYCARRKYSYTYDYFDYWGQGTLVTVSS
VL: QTVVTQEPSFSVSPGGTVTLTCGLSSGSVSTSYYPSWYQQTPGQAPRTLIYSTNTRSSGVPDRFSGSILGNKAALTITGAQADDESDYYCVLYMGSGISYVFGTGTKVTVL
notes: as for B1
B5: Fab VH5-51_IGHD5-18*01>3_IGHJ4*01 G100K/G104T (H:KT) & V3-4_IGLJ1*01 M94A (Fab, V domains shown)
VH: EVQLVQSGAEVKKPGESLKISCKGSGYSFTSYWIGWVRQMPGKGLEWMGIIYPGDSDTRYSPSFQGQVTISADKSISTAYLQWSSLKASDTAMYYCARRKYSYTYDYFDYWGQGTLVTVSS
VL: QTVVTQEPSFSVSPGGTVTLTCGLSSGSVSTSYYPSWYQQTPGQAPRTLIYSTNTRSSGVPDRFSGSILGNKAALTITGAQADDESDYYCVLYAGSGISYVFGTGTKVTVL
notes: Fab; Expressed from Plasmid A (CH1, His6 and Flag tags) and Plasmid E (lambda CL); also called KT & M94A
B6: Fab VH5-51_IGHD5-18*01>3_IGHJ4*01 G100K/G104T (H:KT) & V3-4_IGLJ1*01 S96A (Fab, V domains shown)
VH: EVQLVQSGAEVKKPGESLKISCKGSGYSFTSYWIGWVRQMPGKGLEWMGIIYPGDSDTRYSPSFQGQVTISADKSISTAYLQWSSLKASDTAMYYCARRKYSYTYDYFDYWGQGTLVTVSS
VL: QTVVTQEPSFSVSPGGTVTLTCGLSSGSVSTSYYPSWYQQTPGQAPRTLIYSTNTRSSGVPDRFSGSILGNKAALTITGAQADDESDYYCVLYMGAGISYVFGTGTKVTVL
notes: Fab; Expressed from Plasmid A (CH1, His6 and Flag tags) and Plasmid E (lambda CL); also called KT & S96A
B7: Fab VH5-51_IGHD5-18*01>3_IGHJ4*01 G100K/G104T (H:KT) & V3-4_IGLJ1*01 S99A (Fab, V domains shown)
VH: EVQLVQSGAEVKKPGESLKISCKGSGYSFTSYWIGWVRQMPGKGLEWMGIIYPGDSDTRYSPSFQGQVTISADKSISTAYLQWSSLKASDTAMYYCARRKYSYTYDYFDYWGQGTLVTVSS
VL: QTVVTQEPSFSVSPGGTVTLTCGLSSGSVSTSYYPSWYQQTPGQAPRTLIYSTNTRSSGVPDRFSGSILGNKAALTITGAQADDESDYYCVLYMGSGIAYVFGTGTKVTVL
notes: Fab; Expressed from Plasmid A (CH1, His6 and Flag tags) and Plasmid E (lambda CL); also called KT & S99A
B8: Fab VH5-51_IGHD5-18*01>3_IGHJ4*01 G100K/G104T (H:KT) & V3-4_IGLJ1*01 Y93A (Fab, V domains shown)
VH: EVQLVQSGAEVKKPGESLKISCKGSGYSFTSYWIGWVRQMPGKGLEWMGIIYPGDSDTRYSPSFQGQVTISADKSISTAYLQWSSLKASDTAMYYCARRKYSYTYDYFDYWGQGTLVTVSS
VL: QTVVTQEPSFSVSPGGTVTLTCGLSSGSVSTSYYPSWYQQTPGQAPRTLIYSTNTRSSGVPDRFSGSILGNKAALTITGAQADDESDYYCVLAMGSGISYVFGTGTKVTVL
notes: Fab; Expressed from Plasmid A (CH1, His6 and Flag tags) and Plasmid E (lambda CL); also called KT & Y93A

Experiments:
[1] = molecular target: T2, Recombinant Human DLL4 (R&D Systems Cat#1506-D4/CF) (human, UniProt Q9NR61 27-524); assay: ECL (MSD) binding assay, Fab on immobilized recombinant human DLL4
T2 construct: also called rHuman DLL4; delta-like protein 4

[2] = molecular target: T1, rHuman Erythropoietin R/Fc Chimera, CF …; assay: ECL multispot (MSD) binding assay, antigen spotted on plate, Fab 0.04 uM;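 note: purified Fab incubated 1 h at 20 °C on antigen spots, detected via TAG-labelled antibody, ECL read against each well's blank, with signal-to-blank of at least 4 scored as binder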
[3] = molecular target: T3, rHuman ErbB2/Fc Chimera, CF (R&D Systems Cat#1129-ER) (human, UniProt P04626 23-652); assay: as above
T3 construct: Bought recombinant protein; also called human epidermal growth factor 2 receptor; Fc part of the bought chimera not given

[4] = molecular target: T4, rHuman P-Cadherin/Fc Chimera, CF (R&D Systems Cat#861-PC) (human, UniProt P22223 108-654); assay: as above
T4 construct: Bought recombinant protein; Fc part of the bought chimera not given

[5] = molecular target: T5, rHuman Notch-1/Fc Chimera, CF (R&D Systems Cat#3647-TK) (human, UniProt P46531 19-526); assay: as above
T5 construct: Bought recombinant protein; Fc part of the bought chimera not given

[6] = molecular target: T6, rHuman CD44/Fc Chimera, CF (R&D Systems Cat#3660-CD) (human, UniProt P16070 21-220); assay: as above
T6 construct: Bought recombinant protein; Fc part of the bought chimera not given

[7] = molecular target: T7, Recombinant Human DLL4 (R&D Systems Cat#1506-D4/CF) (human, UniProt Q9NR61 27-524); assay: as above
T7 construct: Bought recombinant protein; also called delta-like protein 4; rHuman DLL4

[8] = molecular target: T8, rHuman EGF R/Fc Chimera, CF (R&D Systems Cat#344-ER) (human, UniProt P00533 25-645); assay: as above
T8 construct: Bought recombinant protein; also called epidermal growth factor receptor; Fc part of the bought chimera not given

Binder | ECL signal [1] | ECL signal [2] | ECL signal [3] | ECL signal [4] | ECL signal [5] | ECL signal [6] | ECL signal [7] | ECL signal [8]
B1 | 17400 |  |  |  |  |  |  | 
B2 | 15300 |  |  |  |  |  |  | 
B3 | 26100 |  |  |  |  |  |  | 
B4 | 6420 |  |  |  |  |  |  | 
B5 |  | 614 | 1200 | 472 | 574 | 633 | 35300 | 1130
B6 |  |  | 1280 | 491 |  |  | 32300 | 1000
B7 |  | 693 | 1320 | 500 | 674 | 670 | 18200 | 956
B8 |  | 602 |  | 497 | 725 | 700 | 8110 | 
